Data on 21 sequences can be found in the DeepSol protein solubility set.

A short description of this series: soluble on expression in E. coli; label from the status in PepcDB or PDB records.
For the sequence “MAGDPMTMRVCYRCGISEEEGGPLINGLCQVCFRKENPVLLLPSEINTELCQNCGSYKKRGVWIDPQNYELESLIFEVAENALLEALEESLDKVKEFEVVPWEELENINNIPVGKAFVGFIPVDYHIQYFPAVIVYRVRVKARLHELQLEPHDEIKETTVYVRQTVCPRCQRFLAGYYEAILQVRVEDREFTKEEREAVTKLVQEKVDEIMKKDRMGFIQDTIEKEEGIDFYMGSTSAARKLANVIREHFGGEISEAYELVGLDRMTSKEVYRTSVTVRLPKFRRGDIVEDRHGRIYKVENVSGKGMRLKNLETWESQHYDWKTIKREKIDKAEHEEKKALLISQTPREAQFMDMSTYETFEVLKPGVNLEEGQLYRLVKVKGRFYIKEKEGEELEHHHHHH”, the “soluble on expression in E. coli” value is recorded as “not soluble”.
The value for “AERGELDLTGAKQNTGVWLVKVPKYLSQQWAKASGRGEVGKLRIAKTQGRTEVSFTLNEDLANIHDIGGKPASVSAPREHPFVLQSVGGQTLTVFTESSSDKLSLEGIVVQRAECRPA” was “soluble”; that for “MAHHHHHHMSVPSLRRSDRSGDPTRDRVHYVRAQRQHLVRETRMLQMALEELQEEAERENTEEALMRRGIDTTHRELLRCLLHLALAEQDSTRGAAAASGAQAQYDETSAIICEVLRRYKHEQDAFTQEAKQRLESIREEARQACMNVGDTLAVPQGEHAHSSGVGSVVEATDCDSLRSALEALREMQAEVDEETEATLLSIGRTLFC” was “not soluble”; that for “MGSDKIHHHHHHMVIYMIGGSPCSGKSTIASLLARQYQLLHIKLDDLVDEMMSQASADSQPICLLRQDRNPEQIWMRNPKEMADEEWRFYEEIFPYVKSYLIKKDRPLLVEGAGLLPHLVKELEWPASSYLCLTPTADFQKKHYRQREWVSYVLEGTTNPEQAFENWMQRDILFAQMVRKEAMRLGYSSLMTDGSQSEKQTAEEIARLLKLYNINEIDIKGENT” was “not soluble”.
Then “STAGKVIKCKAAVLWEEKKPFSIEEVEVAPPKAHEVRIKMVATGICRSDDHVVSGTLVTPLPVIAGHEAAGIVESIGEGVTTVRPGDKVIPLWTPQCGKCRVCKHPEGNFCLKNDLSMPRGTMQDGTSRFTCRGKPIHHFLGTSTFSQYTVVDEISVAKIDAASPLEKVCLIGCGFSTGYGSAVKVAKVTQGSTCAVFGLGGAGLSVIMGCKAAGAARIIGVDINKDKFAKAKEVGATECVNPQDYKKPIQEVLTEMSNGGVDFSFEVIGRLDTMVTALSCCQEAYGVSVIVGVPPDSQNLSMNPMLLLSGRTWKGAIFGGFKSKDSVPKLVADFMAKKFALDPLITHVLPFEKINEGFDLLRSGESIRTILTF”, with “soluble”; and “MSLRFITPEKRTIEELRFPTREAADNAVKKIADGLSFDDLVKAENKTLNDIKKGPFTENELPSYLSSEIFELKQGQISAVINDLQGPVIIRVTDITPAGPIPFEKVEDNIRQTLAQNRAADDIRNSYTEIENARFEGASEGHHHHHH”, with “soluble”; and “MQIVQIARPGSMKGWIRKAVARYAHATGRGGKFYRRFCNPSGLEWGAYLARWGNFHSVGSNFYVNTGCKFLDPSLVRIGNSVGLSDCTLIGHDGVVLLIEHRFGKHLDSVGFIDIKDNCFIGHGAIVMPRVTIGPESIVAAGAVVTKDVPPGTVYGGNPAEFICTTEQLIKRVEARCEAYPWIDLVKQRNGAYDPEVEPLLMAQRRQYFFGDSLEHHHHHH”, with “not soluble”.
Then “MDFLKQPCAPLDFDLSREQIEGMLRSARFIKGSFSTRVVGHLPIDNSFRQVSVAIENETSSSIEIMTLERGDTFCGIPLKQRKIPFQNSLKSADIDFTYDDSGIDLTNAPVSFFIEGGRVASICWHHKHRN”, with “not soluble”; and “MAHHHHHHMGTLEAQTQGPGSMGTSQEFETSSLKTLPLYELHEKAGAKFGAFAGWRMPLTYPLGVLKEHLHTRAHAGLFDISHMKLIAVEGPKAVEFLSYALPVDAALLKIGQSRYSYLLNERAGILDDLILTRLAECRFMLVANAGNAQADFAELEKRAFGFECQVIALERVLLALQGPQAAAVLADAGLPGNELLFMQGFEPQQDWFITRSGYTGEDGFEIALPIGCARALAEKLLGDSRVEWVGLAARDSLRLEAGLCLHGNDITPDTTPIDAALTWAVPKNVREKAQFYGAKAFLESLQKGPSRCRVGLKPQTRQPIRAGAVLFDNEGNRIGVVTSGGFGPSFDGPVAMGYVPVAWKVEGTEVFTELRGKKIALSVHSLPFVEQRYFKG”, with “soluble”.
Consider “MGSDKIHHHHHHMKKITKIEGNLANSFIKPKTRVVAYCRVSTDSNEQLVSLQAQKAHYETYIKANPEWEYAGLYYDEGISGTKKENRSDLLRMLSDCETGRIDLIITKSISRFARNTTDCLEMVRKLIDLGVHIYFEKENINTGSMESELMLSILSGLAESESISISENTKWAIQRRFQNGTFKISYPPYGYQNIDGQMIVNPKQAEVVKYIFAEVLSGKGTQKVANDLNQKGIPSKRRGRWTATTIRGILTNEKYTGDVILQKTYTDSHFNRHTNYGEKNMYLVENHHEAIISHEDFQAVDAILNQRAKEKSIEKRNSKYLNRYSFSSKIICSECGSTFKRRIHSSGRKYIAWCCSKHISNITECSMQFIRDDDIKTAFVTMMNKLIFGQKFILRPLLEGLRNQNNAASFHRIEELEIKIENNMEQSQVLTGLMAKGYLEPALYNKEKNSLVQERERLLAEKDQLTRFVNGNLAKVEEVNHLLRFATKSKMLTAYEDELFENYVEKIIVFSREEVGFELKCGITLKERLVN”, for which the “soluble on expression in E. coli” value is recorded as “not soluble”.
The value for “ARICDVFSRFDETPLASASVAQVHAACLKTGEEVVVKVVRPGLKPIIGQDLAWLFILARMAERVSADARLLHPVQVVMDYEKTIYDELDLLREAANSSQLRRNFEGSDLLYVPQVYWDWCR” was “not soluble”; that for “MGSDKIHHHHHHMKKNILHIHGFNSSPLSLKAEQTRKYMAKNFPNVGFYCPQLATTPANAMSQLEQLIETHDSNAKWYLIGSSLGGYFAHYLAKKYDCLAVLVNPAITPYELLHDYIGEQVNPYTEEVYQVTEDHMQQLKALEQTAPTIDCTEKNNYLVMVQTGDEVLNYQQAVEKYQYCRLIVQEGGDHSFINFDNCLPTISDFFQLDNTKRINSR” was “not soluble”; that for “MEQPQEEAPEVREEEEKEEVAEAEGAPELNGGPQHALPSSSYTDLSRSSSPPSLLDQLQMGCDGASCGSLNMECRVCGDKASGFHYGVHACEGCKGFFRRTIRMKLEYEKCERSCKIQKKNRNKCQYCRFQKCLALGMSHNAIRFGRMPEAEKRKLVAGLTANEGSQYNPQVADLKAFSKHIYNAYLKNFNMTKKKARSILTGKASHTAPFVIHDIETLWQAEKGLVWKQLVNGLPPYKEISVHVFYRCQCTTVETVRELTEFAKSIPSFSSLFLNDQVTLLKYGVHEAIFAMLASIVNKDGLLVANGSGFVTREFLRSLRKPFSDIIEPKFEFAVKFNALELDDSDLALFIAAIILCGGE” was “soluble”.
As for “MTVASTLGLNETQYATDDCLEEIINNTRAVRQDSEKTRFKLQINNFLAEVASGSLVINSDLIGSIEKRIADIDKLMSEQLSLIMHATEFQKIESAWTGLYKLVQASVTENVKYTVLHCTKKELLKDFKSASDFDQSVLFKNIYESEYGTFGGTPYSAFVGDFYFDNTPQDIDLLEHISHVAASAHAPFLSAIAPGMLSMSSFSELPYPRDLAKLFETTDYARWRSFRQTDDSRYVGLTLPQSLGRIPYGMKTIPAETFNFEEHISEDNSGKDYLWVNTAFELACRIVDAFEEYGWCAAIRGVEGGGLVKSLPAYNYVSHTGERLLQCPTEVAISDRREKELSDLGFIPLVYCKGTDFAAFFAVQSVNKARLYNTDQANANAKLSSQLQYILATSRFAHYLKVIVRDKVGSFMSRTECQTYLQNWIMQYVVASDNAGQETKARYPLREASVEVIEVPGSPGNYRAIAWIKPHFQLEGLSMSLRLVADLPSSVS”, the “soluble on expression in E. coli” value is “not soluble”.
In the case of “RQDARERERLAVLAASRTALAPLDGPPQVLWTSDREEVLWASARTPDGLLVVPGTQGERVVRALDPATGDVVWERELLPPRDTAPAPNEDVAGASCVGHGAAGDLLACLASDAMTVFDERTTDIRYVAPTVVRLVLLDPQDGTVVADLSDAVAGTGTAPAYVALGDLVVVSSVVDDATRVVAVAPDGSVAWRTEVPPSTRPAPGLPGLRRADVLALGDHLVVATAEEMRLLDATGATVRTVPLADDESLGGAEGTTAFARTGLDRVTLMQVGSEVVARGEGTKVVRADHVGELPGGRVRADVDDGSDPRLVLTSDAEGLHGWDAEGVRRWSADVQVTRSAMVLAGRVHATTRADALVTFDARTGAELWRRDGLVLDQAPLADGRVLLVRERGADGAALDLVALDVADGEVAWRTPWPEGVDQLQAVFGVIVGLSYDVEGEDWSVTALG”, the “soluble on expression in E. coli” value was “not soluble”.
Then “MVVVPHIDRQFLKDVEAVFTARARVNLPVPNPGLGTWVDRTTDTWFRFNHQLSVAIADILQRNFHYAWLTYQMILVVFKARWFFSSRHTLTVWTQFNLVARTLYRDDNSLE”, with “not soluble”.
Then “MRGSHHHHHHGSACVSKRRVVVTGLGMLSPVGNTVESTWKALLAGQSGISLIDHFDTSAYATKFAGLVKDFNCEDIISRKEQRKMDAFIQYGIVAGVQAMQDSGLEITEENATRIGAAIGSGIGGLGLIEENHTSLMNGGPRKISPFFVPSTIVNMVAGHLTIMYGLRGPSISIATACTSGVHNIGHAARIIAYGDADVMVAGGAEKASTPLGVGGFGAARALSTRNDNPQAASRPWDKERDGFVLGDGAGMLVLEEYEHAKKRGAKIYAELVGFGMSSDAYHMTSPPENGAGAALAMANALRDAGIEASQIGYVNAHGTSTPAGDKAEAQAVKTIFGEAASRVLVSSTKSMTGHLLGAAGAVESIYSILALRDQAVPPTINLDNPDEGCDLDFVPHEARQVSGMEYTLCNSFGFGGTNGSLIFKKI”, with “soluble”; and “MGSDKIHHHHHHMKVFFVVDIKSGKVVAGKGGERESYPPITAISRLVSSDDALKVIEEIKPRFLYAADLDRIVGLGDNFSLLSKLSKRVEELIADCGFRSPEELEKLPFTPVVGTETFDITQLDRKCYVSLDFKEKFLDASGKFESWEEVVKFLNSFDLYGLIVLPIHAVGAMKPDLSVLTKTLELSEHPVMLGGGISGVEDLERLKEMGCSGVLVATAVHKGKIPLDVVRKGKF”, with “not soluble”; and “MSLDRLKQSLLDAPIIEKDGYHYFVHPISDGVPMLEPELLREIVIRIIRKAELDEVDKIVTPAAMGIHISTAVSLMTDIPIVVIRKREYGLPGEVALSQETGYSENEMYINDVHEGDRVLVLDDVLSTGGTLRAITDALEQTGADVADVLAVIKKAGPNELDDTDMDVRTLINVDEGHHHHHH”, with “soluble”.
On to “MGKKAKLGHKTGVNKGILLTDRQRLNWLRLLRSENIGAVSFRNLIDHYKTAENALAALPELSRKGGLATSIRIATLEDAEKEMQEAEKLGIRFVGIGEPDYPTFLKVTEASPPLIAIKGNVSVFEKASVGIVGSRNASAAGKKLAAQFAHFLGNADFTIISGLARGIDSIAHQASLQTGTVAVMAGGIDHIYPPENKKLHEDIIANGGAIISEMPIGWKPRAIDFPRRNRIIAGLSLGLLVVEAALQSGSLITARQAAEMGRLTFAIPGSPLDPRSVGTNNLLKDGALLTTHPSDIIETLTPLIPTPTNHQLNFFEELPSLQLEKDCFNSSDKKTKITSFVGDERERRAVLSALSTTPIDLDTLSTNSGVSLSNLYLLLVELELAGKLIRHSGGYVSLSNFDLLQEPPHY”, for which the “soluble on expression in E. coli” value was “not soluble”.
Then “MSLTYEKLYELRQTLRPTTKDGLYTDNEKNREILTVRWSGNTENPKNFSAVAIGINPSKANDERSDKTLTQLARFLDMYGFTNFKMLNIFSSYSTQQTGIRANTQTDFSKFKGCLEDADMIILAWGTDRGAYKDEKNRILEFLKAEKFMEKVFCISETGNSSDTRHPSRISYSYQLVQFEESAEGGSHHHHHH”, with “soluble”.
